Experimental data reported in paper doi:10.1101/2023.08.25.554718, “Structural mechanism of synergistic targeting of the CX3CR1 nucleosome by PU.1 and C/EBPα”.

B1: 162 bp CX3CR1 DNA (dsDNA)
DNA 1: TAGGTGCAGGGCCTCTCGGCTGCTGATCTTCAGCTGGTTGCTGAGAGTTGCAGCATTGCTGAGTCTTAGCAATGGATACTTCCCGATTCCCCTCACAAAAATAGGTCAGTCTGTCTGGCTAGTTCTGTACTTGCAGACACAGGGCATGTGGGGTTCCTATTT
DNA 2: AAATAGGAACCCCACATGCCCTGTGTCTGCAAGTACAGAACTAGCCAGACAGACTGACCTATTTTTGTGAGGGGAATCGGGAAGTATCCATTGCTAAGACTCAGCAATGCTGCAACTCTCAGCAACCAGCTGAAGATCAGCAGCCGAGAGGCCCTGCACCTA
B2: 20 bp C/EBPalpha site DNA (dsDNA)
DNA 1: ATCTTCAGCTGGTTGCTGAG
DNA 2: CTCAGCAACCAGCTGAAGAT

Columns and labels:
[1] = target: PU.1 full-length (mouse, UniProt P17433 1-272); test: EMSA; EMSA: 20 mM HEPES pH 7.3, 150 mM NaCl, 0.5 mM TCEP, 30 min room temperature, 0.5 uM nucleosome or DNA; FRET: 20 mM HEPES pH 7.1, 100 mM NaCl, 0.5 mM TCEP, 200 nM nucleosome; settings: protein: recombinant; tags: N-terminal His
[2] = target: PU.1 ETS (ETSPU.1) (mouse, UniProt P17433 165-272); test: EMSA; EMSA: 20 mM HEPES pH 7.3, 150 mM NaCl, 0.5 mM TCEP, 30 min room temperature, 0.5 uM nucleosome or DNA; FRET: 20 mM HEPES pH 7.1, 100 mM NaCl, 0.5 mM TCEP, 200 n
[3] = target: PU.1 ETS Q218H (mouse, UniProt P17433 165-272, Q218H); test: EMSA; little effect of Q218H; EMSA: 20 mM HEPES pH 7.3, 150 mM NaCl, 0.5 mM TCEP, 30 min room temperature, 0.5 uM nucleosome or DNA; FRET: 20 mM HEPES pH 7.1, 100 mM NaCl, 0.5 mM TCEP, 200 n
[4] = target: MBP-DBD C/EBPalpha (UniProt P53566 214-359); test: EMSA; 5 uM DNA; MBP fusion assumed; EMSA: 20 mM HEPES pH 7.3, 150 mM NaCl, 0.5 mM TCEP, 30 min room temperature, 0.5 uM nucleosome or DNA; FRET: 20 mM HEPES pH 7.1, 100 mM NaCl, 0.5 mM TCEP, 200 nM nucleosome; settings: protein: recombinant; tags: N-terminal MBP; chain copies: 2; blunt
MBP-DBD C/EBPalpha, sequence (P53566 214-359): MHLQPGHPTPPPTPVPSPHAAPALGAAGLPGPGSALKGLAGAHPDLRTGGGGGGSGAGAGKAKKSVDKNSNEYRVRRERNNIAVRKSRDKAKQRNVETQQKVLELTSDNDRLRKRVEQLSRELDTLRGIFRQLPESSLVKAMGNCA

Binder | binding result [1] | binding result [2] | binding result [3] | binding result [4]
B1 | binds | binds | binds | –
B2 | – | – | – | binds
